Measurements published in patent US20240110004 (published 2024).
Where no end group is shown, it is not given here.

Biological target: VCP (UniProt P55072)
Test: BLI, VCP immobilized on anti-HIS sensor, analyte in Tris pH 8.4, multivalent

VCP, sequence (P55072 2-806): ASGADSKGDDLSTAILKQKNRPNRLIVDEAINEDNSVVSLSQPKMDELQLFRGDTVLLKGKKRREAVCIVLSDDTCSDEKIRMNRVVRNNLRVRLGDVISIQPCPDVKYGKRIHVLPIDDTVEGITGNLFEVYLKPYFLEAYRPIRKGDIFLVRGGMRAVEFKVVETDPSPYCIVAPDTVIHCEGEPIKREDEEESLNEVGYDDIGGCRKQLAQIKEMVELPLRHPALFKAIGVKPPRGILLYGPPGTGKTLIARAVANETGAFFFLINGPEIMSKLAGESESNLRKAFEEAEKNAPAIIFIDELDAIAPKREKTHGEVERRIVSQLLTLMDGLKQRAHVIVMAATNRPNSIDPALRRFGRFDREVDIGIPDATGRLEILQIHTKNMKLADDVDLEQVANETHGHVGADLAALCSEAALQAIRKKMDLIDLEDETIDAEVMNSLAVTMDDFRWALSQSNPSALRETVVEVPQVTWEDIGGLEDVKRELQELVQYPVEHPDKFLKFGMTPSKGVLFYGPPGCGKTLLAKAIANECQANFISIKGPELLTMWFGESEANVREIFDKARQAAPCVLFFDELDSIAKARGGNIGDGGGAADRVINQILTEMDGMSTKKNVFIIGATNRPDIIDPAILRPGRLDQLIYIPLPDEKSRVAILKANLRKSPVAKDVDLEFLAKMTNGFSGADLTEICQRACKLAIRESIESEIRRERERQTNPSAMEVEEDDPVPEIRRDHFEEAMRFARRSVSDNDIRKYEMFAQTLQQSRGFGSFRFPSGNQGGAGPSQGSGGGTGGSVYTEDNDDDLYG

HVLVMSATRR (not fully specified (N-terminus); also: multivalent polymer conjugate) [P1]
Kd: 92 nM
